The data set concerns the molecule itself. Briefly: cross-linking.

Here are results for one protein from publication PMC6453127 (Biochimica et biophysica acta. General subjects, 2017).

B1: His6-tagged Hsp90β CTD (530–724) (domain or fragment)
chain: not shown
For the protein B1, the binding result is reported as “binds”.
